In IntAct's records for PubMed 12361576:

B1: Cofilin-1-A (Xenopus laevis (African clawed frog)), P45695 (parent)
chain: MASGVMVSDDVIKVFNEMKVRHQLSPEDAKKRKKAVVFCLSDDKKTIILEPGKEILQGDIGCNVEDPYKTFVKMLPRNDCRYALYDALYETKETKKEDLVFVFWAPEEASLKSKMIYASSKDAIKKRLPGIKHEWQINTYEDVNDPCNLADKLGGNTVVSLEGKSVRS

Variants of: B1
Details: with 1433z_bovin YWHAZ

Row | Variant | effect of a mutation on the interaction
1 | MAAGVMVSDDVIKVFNEMKVRHQLSPEDAKKRKKAVVFCLSDDKKTIILEPGKEILQGDIGCNVEDPYKTFVKMLPRNDCRYALYDALYETKETKKEDLVFVFWAPEEASLKSKMIYASSKDAIKKRLPGIKHEWQINTYEDVNDPCNLADKLGGNTVVSLEGKSVRS [S3A] | decreasing interaction
